{
  "source": "paper PMC4558601",
  "about": "“Architecture of the Synaptophysin/Synaptobrevin Complex: Structural Evidence for an Entropic Clustering Function at the Synapse” (Scientific Reports, 2015)",
  "proteins": {"B1": {"name": "synaptophysin (SYP), native, from calf brain (natural protein, bovine (endogenous in calf brain), UniProt P20488 1-313, looked up)", "chain": "MLLLADMDVVNQLVAGGQFRVVKEPLGFVKVLQWVFAIFAFATCGSYSGELQLSVDCANKTKSDLNIEVEFEYPFRLHEVYFEAPTCQGDPKKIFLVGNYSSSAEFFVTVAVFAFLYSMGALATYIFLQNKYRENNKGPMLDFLATAVFAFMWLVSSSAWAKGLSDVKMATDPENIIKGMHVCHQPGNTCKELRDPVTSGLNTSVVFGFLNLVLWVGNLWFVFKETGWAAPFLRAPPGAPEKQPAPGDAYGQAGYGQGPGGYGPQDSYGPQGGYQPDYGQPASSGGGGYGPQGDYGQQGYGPQGAPTSFSNQM", "notes": "synaptophysin (SYP), bovine, native protein isolated from calf brain synaptic vesicles together with VAMP2; 4-pass integral membrane protein; Endogenous protein, co-purified with VAMP2 as a native complex; source: purified from calf brain synaptic vesicles (Triton X-100 extract with cholesterol; hydroxyapatite/celite flow through, anion exchange, size exclusion)"}},
  "biological_target": "the molecule itself",
  "assay": "SEC + other: SDS-PAGE densitometry and western blot of the co-purified native complex; native SYP/VAMP2 complex purified from calf brain synaptic vesicles in high cholesterol; Sephacryl S-300 in 20 mM NaH2PO4 pH 6.8, 0.2% Brij-35, 0.1% cholesterol, 40 mM sucrose; fractions analysed by SDS-PAGE, silver stain, western blot, densitometry",
  "data": [
    {"protein": "B1", "values": [
      {"measurement": "stoichiometry N", "result": 6}
    ]}
  ]
}
